# According to article PMC3045100, “Cell-Penetrating Penta-Peptides (CPP5s): Measurement of Cell Entry and Protein-Transduction Activity” (Pharmaceuticals, 2010):
# Test system: Tex-loxP-EG cells
# Experiment: Protein transduction: delivery of Cre recombinase read out by GFP expression
# Format: cell-based, mouse
# Settings: 5 or 10 µM protein, 3 h, GFP measured 48 h after, FACS, three independent experiments
# Experimental: To determine the protein-transduction activity of VPTLK and KLPVM, these peptides were added to the N-terminus of Cre DNA recombinase and the resulting CPP5-Cre fusion proteins were added separately to the culture medium of Tex-loxP-EG cells, which are engineered to express GFP through Cre-dependent excision of a chromosomal lox P site. This method was developed by S. Dowdy’s group to determine the protein-transduction activity of TAT peptide.
# First, cells were cultured for 3 h in serum-free medium in the presence of 5 or 10 µM Cre, TAT-Cre, KLPVM-Cre, or VPTLK-Cre. GFP expression was measured 48 h after the incubation with the CPP-Cre proteins. […]
# Figure 5 Protein-Transduction activity (PTDs) of VPTLK and KLPVM determined by the delivery of Cre recombinase into cells. a. […] The delivery of Cre into Tex-lox P-EG cells was evaluated by GFP expression as previously reported. GFP expression was analyzed 48 h after the incubation of cells with Cre proteins. b and c. […] Mean GFP fluorescence intensity of Tex-loxP-EG cells incubated with 5 or 10 μM Cre recombinant proteins under serum-free conditions. […]
# Tex lox P EG cells were established from thymoma cells of p53-deficient mice, which were genetically engineered to have a lox P site flanking the EGFP gene. […] Expression of GFP was analyzed by fluorescence microscopy and by FACS [11].
molecule,measurement,value
"Cre: His-tagged recombinant Cre DNA recombinase without TAT or CPP5s (protein, UniProt P06956 1-343, looked up, His tag, His-tagged recombinant Cre DNA recombinase without TAT or CPP5s) Recombinase cre: MSNLLTVHQNLPALPVDATSDEVRKNLMDMFRDRQAFSEHTWKMLLSVCRSWAAWCKLNNRKWFPAEPEDVRDYLLYLQARGLAVKTIQQHLGQLNMLHRRSGLPRPSDSNAVSLVMRRIRKENVDAGERAKQALAFERTDFDQVRSLMENSDRCQDIRNLAFLGIAYNTLLRIAEIARIRVKDISRTDGGRMLIHIGRTKTLVSTAGVEKALSLGVTKLVERWISVSGVADDPNNYLFCRVRKNGVAAPSATSQLSTRALEGIFEATHRLIYGAKDDSGQRYLAWSGHSARVGAARDMARAGVSIPEIMQAGGWTNVNIVMNYIRNLDSETGAMVRLLEDGD","GFP expression induced by Cre protein, serum-free medium",did not
